{"source": "the DeepSol protein solubility set"}
{"assay": "soluble on expression in E. coli; label from the status in PepcDB or PDB records"}
{"sequence": "MSEPMSERERWQLELDKLQRGLQGDPFAFLGPQRDPGGEGGVLRAYLPGAQRVELLDEDGATLAELEQSDPGSGLFQRHLERLPPRYRLRVHWPDGVQESEDPYAFGPLLGELDLYLFAEGNHRQLASCLGAQLTRHEGVEGVRFAVWAPNAVRVSVVGDFNGWDGRRHPMRRRYPSGVWELFVPRLGEGELYKYELQGHDGLLPLKADPLALACETPPGTASKTCAALRHEWRDQDWLARRAERQGYAAP", "soluble on expression in E. coli": "not soluble"}
{"sequence": "MSETAKRLLRRVEAIDAAAAENRARAEQYRQMTEKLAAVTGTATSPDGVVTVVAGPDGSVKEVTFSEQVRKADPAALSASVVHTIAQARVNATREQAEIMRRNLDDTHLLDQVLAEDARLFGDKQPEDPGPPPPAAVPTGGTPAGRPRTQPARQAYNDDDSFEDFQVLRRS", "soluble on expression in E. coli": "not soluble"}
{"sequence": "MSETKNITVPEINKTVEQMLIKGRWLDALDFWINNTDSLVLIRWLAQFISQLSPEEDSLLLQSIVRWKEGDDEQRWEIFRHAESVGFSTQTGALGVSLFVSQGSLSPAPYDPVYAPSCSEKKIIYGILMHQSNKYYDAPDEGVFFLFRHWCNSHS", "soluble on expression in E. coli": "not soluble"}
{"sequence": "MSETPEYGVLSWWDYGNWIVYVGKRPAVSNNFQTGVEDSANFLLTDSEEEAKTIVEKLKVKYVMTDTLMAEGKFSSITSLAGKEIGEYYEVETVKGDTGLRTVATPKQALLQTQVYKLHKLDGTSLGHFRLVHESAVNSTDDGNSKENTVKVFEYVKGATLSGTLEHHHHHH", "soluble on expression in E. coli": "not soluble"}
{"sequence": "MSFEEFTPLNEKSLVDYIKSTPALSSKIGADKSDDDLVIKEVGDGNLNFVFIVVGSSGSLVIKQALPYIRCIGESWPMTKERAYFEATTLRKHGNLSPDHVPEVYHFDRTMALIGMRYLEPPHIILRKGLIAGIEYPFLADHMSDYMAKTLFFTSLLYHDTTEHRRAVTEFCGNVELCRLTEQVVFSDPYRVSTFNRWTSPYLDDDAKAVREDSALKLEIAELKSMFCERAQALIHGDLHTGSVMVTQDSTQVIDPEFSFYGPMGFDIGAYLGNLILAFFAQDGHATQENDRKEYKQWILRTIEQTWNLFNKRFIALWDQNKDGPGEAYLADIYNNTEVLKFVQENYMRNLLHDSLGFGAAKMIRRIVGVAHVEDFESIEEDKRRAICERSALEFAKMLLKERRKFKSIGEVVSAIQQQS", "soluble on expression in E. coli": "soluble"}
{"sequence": "MSFFTKEQQPKENCPPITVEKARQLFEFNTNHLSLSDYHHQTVLKTSKQLVAQHLMPNATDNLSQHFLMNYKANNNYLGFQASIVDFFTDSAVANFSSSYVYESQEKIIRLPKPTKISTALSTCIIKRRSHRQFSDRQMPLQDLSNILYYACGVSSQASIRDGASDKITLRNCASGGGLYPIHLVFYARNISKLIDGFYEYLPYQHALRCYRHSSEENVRDFAEYGAINAENCNIIIIYVYHYMKNTRKYGNQATAYAFIESGEIAQNIQLTATALTYGSIDIGGYNKEYLQELLDLDGLGEHVIHMTLVGTKESQ", "soluble on expression in E. coli": "not soluble"}
{"sequence": "MSFITAFRERVFIASGDLIRTFRISEETELKNFISWSKINPERIQKPSFDIEKELKAVEKRVILCLAHSNVLTTHGRRLVAVGTNEKQIHVFEYFVNDKGDIVTAEHIVTSVVPKAPTAIVFDKEDAYVVVGDRAGDVHRFSVLNGSAIEMAGAISMILDVAFSPDGKRLLMADRDEKVRALRYPATSVIDSFFLGHTEYVKTLAVQDNDSLWSSGGDKNLYNWSIAKCSAPRRTLDLSQFDAPIRKISINLQHKKIAVIFEKIETVVIVDLNQESLQTTSVSIVGESQCLDIASTKDYFAVLGRSTVHLIDLNNMEQKFVPIDEELTITLTSTNDAIDNLFKNVTHNNQQEYEKRKADKFEQIEKKKRRLNEDINGDDGEGPGPSNS", "soluble on expression in E. coli": "not soluble"}
{"sequence": "MSFRIGRRCFSKQSYDAIIIGGGHNGLTAAAYLTKAGKKVCVLERRHVVGGAAVTEEIVPGFRFSRASYLLSLLRPVVMQELNLKKFGLRYHIRNPNSFTPIRNTHESLLLGMDMAENQKEIAKFSQRDAGNYPKYEHFISEIVHSFEQLMDYEPLDLQKPIHKLLPHLYLLFKTVQPLGLRNAVDFYELMTAPISKIMNKWFESDVLKATLGTDGVIGLAASPMDPGTGYVLLHHVIGGLDEHKGAWGYVYGGMGAVSNAIAECAKSHGAEIYTEQDVQEVLLDGNVAKGVRLSNGKELHSKIVMSNATPHVTFNHLVKKESLPEEFHRNINQIDYTSPVTKINVAVKELPNFLAKPNQGSEPMPHHQTTIHMNCENMQVVHDAVMDYKNGRYSRRPVIEMTIPSSVDRTIVDSADGHVVLLFTQYTPFSPKDGEWTEEKKTEYAKHVFSEIDAYAPNFSSSVIGYDILTPPDIQNTFGITGGNIFHGSMSLDQLYVSRPISKWSNYSTPIESLYLCGSGAHPGGGVTGAPGRLSALHALKHF", "soluble on expression in E. coli": "not soluble"}
{"sequence": "MSFSDHFSAVAASYAKARPRYPQRWFRYLARIVPDRQRVWDCATGNGQAAIALAEYFSEVIGSDASAAQVRQARSHPRVQYLVFPAEATPLAPASLDLITVAQAAHWFDLPQFYIEAQRLLRPGGVIALWGYGLGSLNPAIDHVFNHFYRDWLDPYWPPERQWVEQAYEGLSFPFEPLPTPTFSMQCDWTLFDLLAYLRTWSGVQQFQRQRGFDPVWAIAPELQRVWGDPQRYRRITWPLFAKVGRWQPLEHHHHHH", "soluble on expression in E. coli": "soluble"}
{"sequence": "MSFVAYEELIKEGDTAILSLGHGAMVAVRVQRGAQTQTRHGVLRHSVDLIGRPFGSKVTCGRGGWVYVLHPTPELWTLNLPHRTQILYSTDIALITMMLELRPGSVVCESGTGSGSVSHAIIRTIAPTGHLHTVEFHQQRAEKAREEFQEHRVGRWVTVRTQDVCRSGFGVSHVADAVFLDIPSPWEAVGHAWDALKVEGGRFCSFSPCIEQVQRTCQALAARGFSELSTLEVLPQVYNVRTVSLPPPDLGTGTDGPAGSDTSPFRSGTPMKEAVGHTGYLTFATKTPG", "soluble on expression in E. coli": "soluble"}
{"sequence": "MSGDYRITLEELRYISVFHSITGVTAYRCIVDEENNRLIFLVSEGEAGRAIGRGGRLIKLLREALGKNIEVVEYSSDLERIVKNLFPGVKIESINVRERNGVKQVVIKVSEDDKGAAIGKGGKNVKRARLVLSKLFGVEKVVIR", "soluble on expression in E. coli": "soluble"}
{"sequence": "MSGIKSLELLLQSMSPELMAGDYVFCTVNGALSDYLSLEPIATFREPEGLTLVLEAEKAQQAGLESSALFSLITLTVHSSLEAVGLTAAFATKLAEHGISANVIAGYYHDHIFVQKEKAQQALQALGEFAQA", "soluble on expression in E. coli": "soluble"}
{"sequence": "MSGWNVNASSFVPNANARPFVPGQPYTPQPEQAAPEPTEDWEAQADTSPAAVQPEVAEPVAVQESAPVAPVSATEAPKKEPTPEEDLVAPLAKKFQRTVYVDDGTHKEHINMVFVGHVDAGKSTIGGQLMFLTGMVDKRTLEKYEREAKEKGRESWYLSWCMDTNDEEREKGKTVEVGRAYFETEKRHFTILDAPGHKSFVPNMIVGANQADLAVLVISARRGEFETGFDRGGQTREHSMLVKTAGVKHLVILVNKMDDPTVKWEEERFKEIEGKLTPFLRKLGFNPKTDITYVPCSGLTGAFIKDRPTGSEGNWYSGPCFIEFIDVLLPSYKRDFNGPVRCTVAEKYSEMGTVIIGKMESGCVQKGDTLVVMPNKQPVQVLQIWADDVETERVVAGDNIKFKLKGIEENELQGGFIICSPDSLAKTGRVFDAEVLVLEHRSIIASGYSCVLHIQSAVEEVTVKGVIATIDKKTGEKKRAKFVKQDEKCIMRLESPEPFVLEPFKEYPYLGRFTLRDEGKTIAIGKVLKVVE", "soluble on expression in E. coli": "not soluble"}
{"sequence": "MSGYDRALSIFSPDGHIFQVEYALEAVKRGTCAVGVKGKNCVVLGCERRSTLKLQDTRITPSKVSKIDSHVVLSFSGLNADSRILIEKARVEAQSHRLTLEDPVTVEYLTRYVAGVQQRYTQSGGVRPFGVSTLIAGFDPRDDEPKLYQTEPSGIYSSWSAQTIGRNSKTVREFLEKNYDRKEPPATVEECVKLTVRSLLEVVQTGAKNIEITVVKPDSDIVALSSEEINQYVTQIEQEKQEQQEQDKKKKSNH", "soluble on expression in E. coli": "soluble"}
{"sequence": "MSHDSSGEYMVSQVLKCVKFKDLVRKALNAEAKFSPASVEYDKRRHSKYAYLVHWRGYDWKERTWEPEENLENCEELQKFKERNNMSLDHLTFEHHYEHSTWRRISLASEKCVTNRYLKTDDEIEEKRARKKAKLEEQNRKEQAKNPHASAETEPAVKKKKIEGVGSRIPKISDREGAGTSGQSSSNVSTPGITPLDNKTPRMQKKSNEIGQASTPECAIATLSIGTPQPSIIDSTYDQSDIANGSTSPQPQPVFKRKMNGQDVSDYSVHQGGTFSDGSAIEGSTSRESEDMDCTQETKKALQKAIESAREECEEIEKTIKKYPLQVTSSRVVTGFSPALTLRKFRRCQSLEMLSDHFNNNAEMEIFGKNFENSVRLDADAKPVVIKIYPQEQELFLTKQRKMPSLEMEQLVYENLVKENANNIKIAMHNIRPDKNFAQLLECLSHAYSKDDNIRFETIFNEGFPPSDEYDCRRFQAIVFLIAYCKHRLWKADPKGMAIVEASDAVKEGEIREQQIICSDRHRKCAWLQVFLKLMPDRFKFLETSGQCYHGWEGDDGPFRDDVFFHCMKYGAECQKRLFLDFNKPIGIQEETVGDYSVDAMHLLAVQYGNIQRIPSYLSIGGLDINALATHLPTKRVMRLQHYLKVWIEAHKSETTATEDRKKYYRYLNDVIRLTSESLEIFLENEVTKMIFSRMGGRWKIRMDLTYPHILRCSPLSNKSNGGDGTHQVLSCLFYPEAIGYRDGLENSKGADTEKIDELKTSQKRYKKMIEEGKGRLVLALYRIDIEFRCNLAEKEQFSLPKFTLIESDDGFKIEKLTLLRQTEGLTCYEADIGMFEMTPFSSPGCRYFGISDKAHEKDLVVPGNAHIEMRAEVDQPISFVTQLFFIKKNV", "soluble on expression in E. coli": "not soluble"}
{"sequence": "MSHLRIPANWKVKRSTPFFTKENVPAALLSHHNTAAGVFGQLCVMEGTVTYYGFANETATEPEVKVVINAGQFATSPPQYWHRVELSDDARFNIHFWVEEDHQGEEMYQQKKA", "soluble on expression in E. coli": "not soluble"}
{"sequence": "MSHPWRSRGEKRTIMFGYTPSDTILKYLKDMRDLINRAILNAYSIARSNDDSLPSPITLRRSLKDYYDNNVAYAKHHINPVCRTAIAMLRSYKKNNGRLKVVKAKRLAMRIDSELAKIEDNRLRITIRPNVYEYVDIVDRNKKYSEYSKYPISEVLLTDNRVYITFITGSDDKPVIANNIIGFDLNFKSVDYTVIKDNRIAYVDSIDTYDIAKTQRDYERKRRKIQKHIRNPAKRIRKLKEAKHRQRNIVRDKLQKLTTNIVKNNEDKTFVFEDLTNIKKKGKKHKDHKRDGQSSKRFRTDINRWPYRLFQMFVEYKSKNETLYVDPEGTSSECPVCGGILEHPIWKMSKCDNCGATFDRDRLSSLSIAVRGLHLCGTPFSVSGSASWDSMKDNYLYRLEHHHHHH", "soluble on expression in E. coli": "soluble"}
{"sequence": "MSHQSPPIAEVDATDDMHEALFAKRGCCFLMPCLASSQPSTRGGSVWWQRITTVDKLEPDERWWIRGWRRMREWSELVAGPRWKTYIRRFGRSNCCGGGGGRVGNSSGGCGGGAMPNRSSDQGKFRYDQLSYSLNFDDGNQTGHFDDEFPYRDYSMRFAAPSLPVSTKCSIDFDSDIDNK", "soluble on expression in E. coli": "soluble"}
{"sequence": "MSHRSPSVTPAVSVLIPAWNAVRHLPAALDGLLSQTFQDWEAVVVDDGSQDETPALLAAYAARDARIRPLHVEHGGIVHALNHGLLHVRGRHVARMDADDTCHPERLALQCHALDNAPHLGLVASRVTFGGDAAQCGGFVRYVDWTNSLLCHEDIALGRFRESPLVHPSVMFRRELIDRFGPYANGPFPEDYELWLRWLEAGVRMEKLPEHLLVWNDPPGRLTRTHDNYAEAGFVALRTRYLARWLCAHNPQHPDVWVIGAGKASRRRARPLCEHGIRIRAWVDIDPHKIGNIVEGLPVVGREAMPAPGQGFMLAFLAGHGAAEELELFLHGAGYLPGQDYLLASLEHHHHHH", "soluble on expression in E. coli": "soluble"}
{"sequence": "MSIESSATPTTPNAEALQLNSTEVRILGCLIEKQATNPETYPLTLNALVIACNQKTSRDPVMNLTQGQVGQSLRALEGRGLTRLVMGSRADRWEHKVDKGLELVPAQVILTGLLLLRGPQTVSELLTRSNRMHDFEDSEQVVHQLERLIARGLATLVPRQSGQREDRYMHLIGDPEDLQDLLAARQQAPERGNAASPAATQRLDELEARIAALEERLARLE", "soluble on expression in E. coli": "not soluble"}
